Assay results published in PMC8346688 (Redox Biology, 2021).

Key:
native gel or EMSA = molecular target: the molecule itself; assay: native gel or EMSA
[1] = molecular target: the molecule itself; assay: non-reducing SDS-PAGE with western blot

Protein	stoichiometry N (native gel or EMSA)	stoichiometry N [1]
BirA*-Flag-Prdx2 (natural protein, UniProt P32119 1-198, looked up) MASGNARIGKPAPDFKATAVVDGAFKEVKLSDYKGKYVVLFFYPLDFTFVCPTEIIAFSNRAEDFRKLGCEVLGVSVDSQFTHLAWINTPRKEGGLGPLNIPLLADVTRRLSEDYGVLKTDEGIAYRGLFIIDGKGVLRQITVNDLPVGRSVDEALRLVQAFQYTDEHGEVCPAGWKPGSDTIKPNVDDSKEYFSKHN	10	2
His-Prdx2 (natural protein, UniProt P32119 1-198, looked up) MASGNARIGKPAPDFKATAVVDGAFKEVKLSDYKGKYVVLFFYPLDFTFVCPTEIIAFSNRAEDFRKLGCEVLGVSVDSQFTHLAWINTPRKEGGLGPLNIPLLADVTRRLSEDYGVLKTDEGIAYRGLFIIDGKGVLRQITVNDLPVGRSVDEALRLVQAFQYTDEHGEVCPAGWKPGSDTIKPNVDDSKEYFSKHN	10	2
